Reference: a protein production outcome set (Wang et al. 2014)

Test: label from the status in PepcDB records
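Note: failed if final PepcDB status was selected cloned or expressed and not failed if soluble or beyond.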

Sequence | protein production
MKDSVDCPSILPTDRTSVLSETSTLVGSSSHVYSRHAPMNSYHNSMNSNIYHSPKASSPLVSYKTSSPVLLKRATAPVLPSFKPKEQRYNKPQGCSLITAVELGKIIETLPDEKVLLLDVRPFTEHAKSIITNSIHVCLPSTLLRRKNFTFSKLLDNLTPSEQSVLKSKLAIDNLRIIIYDSTANQTESSVSLPCYGIASKLIEFDTNVKKTVSILMCGFPQFKILFPDHINTNTFNSDCISSAEPKSPKTNLMNSLHNTAPHMTATTPLSSPQMNLKLKVPDDSRSDHSNFSSSPSPRNVLSDSPMSSSSPISALFKFQLPAPQTNINQMFKFSQNEEIMGLETYLSAVNIKEEHERWYNNDSAKKSLQNFQFPKNQNSLEKDTNKDKLGFQIRYENLSKNYEKEVIDSVIPEWFQHLMSIPKIELVSQFQKLDFLEKRRLNHSVSFRKKENSFILEKPSSYPEQLTSTSSSTIMPPKFPDVNKVQKRSHSQPIFTQYSKYKSMLSLESDSDSESDDVIISSGVELGAKNRYKDIFPYEHSRVILKKGLQSSKGIKHSHSTSDGGILDNYINANYLSLPRFSVEQNSSFQTTTTTTRRVRYIATQAPMPSTVHDFYTCILNNGVPLVLSLTNDFENGIEKCYRYWQEGNYNGIHVKLLEKKILKMPSTTSMRKNTMGTQNSSLYSAGVQGNSSNYSTDNDNDNDNNNNNNNNSNIPVTAAACDDDDDDDDDAILIRQILLTYHDQEKPYELLQIQVKNWPDLGTLLNPISILQAINVKNHIIDTLFARNYYQNDQLPTILVHCSAGCGRTGTLCTIDSILSNFEMFEMLQKEFVKLKYPAKLFDPISWTINIFRKERISMVQNINQFIFIYDCLLFYFRLRLDDITERTDGDGSNKDNISLSALIEQIEKLEILQTFVDDKLKELPQ | failed
MKDVLAEYASRIVSAEEAVKHIKNGERVALSHAAGVPQSCVDALVQQADLFQNVEIYHMLCLGEGKYMAPEMAPHFRHITNFVGGNSRKAVEENRADFIPVFFYEVPSMIRKDILHIDVAIVQLSMPDENGYCSFGVSCDYSKPAAESAHLVIGEINRQMPYVHGDNLIHISKLDYIVMADYPIYSLAKPKIGEVEEAIGRNCAELIEDGATLQLGIGAIPDAALLFLKDKKDLGIHTEMFSDGVVELVRSGVITGKKKTLHPGKMVATFLMGSEDVYHFIDKNPDVELYPVDYVNDPRVIAQNDNMVSINSCIEIDLMGQVVSECIGSKQFSGTGGQVDYVRGAAWSKNGKSIMAIPSTAKNGTASRIVPIIAEGAAVTTLRNEVDYVVTEYGIAQLKGKSLRQRAEALIAIAHPDFREELTKHLRKRFG | not failed
MKEDIVSGTVKRVERHGIIVEVVAGKLDALIPRDQMIPRENFRSGDRIRALFLRVEEIGNTGRKQVILSRTSGLEHHHHHH | not failed
MKEDKKLVKQARQNFRSNLKSARMHYRKEVRTLKQTVPKKGRFRKSAKNSLFQEKKTELKGNLLSSQKEAEEKFIKEITYVSPRLLKAKEIKNYRLPQAQERLRTARKHLSEVKLSEKQQVVNPKFTFQKENPSLKSRFQFHQEKSFDRLSAEKDVSSAKREVKQLKKVQKTKKNSTKVKAGLGLAASESLDLIAQEDDLDGLRTMKDTSLKARRYGRFTYQAGKVAVKSGQTGVRFTKTKFSHGKERFQNFKKGKGFTRQKPLKPRRRYQTFLNHVRKQSVAGFKGIVQAIKGSMTFFSVLAGNPLTWIVSGILLILLLMMSFFMSVSGSSVIQQDEIELSKSYTHMTWEDAEHTRTNDKGITFYTKIDEVMVYMNHQYQDYKLDDFIETSGTTYKEFLSQLWSDLNGGDSIKSMSDLYKEPAYKLSDEDQEELNELTEEGNYLALQELDNPFQGQTDEDSLSMTYRYGYEVIDEKPTLHHHIILEAKEGQVIVAPMDGKVSLDGENVVLTSGKGVNKTKLTLFGIHSGRVSENQQVLAGDIIGQTKDGTGLKVTYQKVDDDTDKLVYVNPAFYFPKVIQVQTTILPTIGQFGGDEFERAKAIYDYLKSKGATNQAIAAILGNWSVESSINPKRAEGDYLSPPVGATDSSWDDEGWLTLNGPTIYNGRYPNILKRGLGLGQWTDTADGSRRHTLLLEYAKGKHQKWYDLGLQLDFMLYGDSPYYTNWLKDFFKNSGSPASLAQLFLIYWEGNSGDKLLERQTRASEWYYQIEKGFSQPNGGTAQSDPKALEAVREDLFENSIPGGGDGMGYAYGQCTWGVAARINQLGLKLKGKNGEKIPIISTMGNGQDWVRTAASLGGETGTSPQEGAILSFAGGGHGTPTEYGHVAFVEKVYPDGSFLISETNYNGNPNYTFRKLSGVDSSLSFAYTTK | failed
MKEFVHDYLAASVENEEEGGRMRWYPWHSAEYRFNHILNVVDIATKIARKEGANVDVTRVAALFHDIAKLEAEQDLHAEAGARIAREYLRAHGDYPESFIEQVCSAVEVHSYQGSLDDLPLEVQCLIEADILDKVGANGTALMLLRMGYESRTHMDAAEMVDRVIERGEDARERVQSDTAESLVHQRLKRTRWFQEWLTMEVAEMAVEDDLDDVATGMGDSLEHHHHHH | not failed
